# Experimental data published in patent publication US20100266576A1 (CENTRE NATIONAL DE LA RECHERCHE SCIENT, published 2010).
# T1: peptide Aβ 29-40
# T1 construct: Bought from Bachem; also called Aβ42 fragment 29-40
# T1 peptide: GAIIGLMVGGVV
# T2: peptide Aβ 33-42
# T2 construct: Bought from Bachem; also called Aβ42 fragment 33-42
# T2 peptide: GLMVGGVVIA
# T3: Aβ42 fragment 1-11
# T3 construct: Bought from Bachem; also called Aβ 1-11; printed as fragment 1-10 in the result sentence
# T3 peptide: DAEFRHDSGYE
# T4: Aβ42 fragment 10-20
# T4 construct: Bought from Bachem; also called Aβ 10-20
# T4 peptide: YEVHHQKLVFF
# T5: Aβ42 fragment 15-25
# T5 construct: Bought from Bachem; also called Aβ 15-25
# T5 peptide: QKLVFFAEDVG
# T6: Aβ42 fragment 22-35
# T6 construct: Bought from Bachem; also called Aβ 22-35
# T6 peptide: EDVGSNKGAIIGLM
# Legend:
# [1] = target: T7, amyloid β peptide 42 (Aβ42); experiment: immunohistochemistry on human AD brain sections
# T7 construct: Synthetic peptide bought from Bachem, used as monomer/oligomer mixtures after incubation at 37 C; also called Aβ42 monomer; Aβ42 oligomers
# Experimental: Immunostaining of brain tissue was performed on […] thick paraffin sections. Sections were de-paraffinized in xylene, rehydrated through ethanol
# (100%, 96%, and 90%) and finally brought to water. They were incubated in 90% formic acid, washed again in water, quenched for endogenous peroxidase with 3% hydrogen peroxyde and 20% methanol, and finally washed in water. Non-specific binding was blocked by incubating the sections for 10 minutes in 2% bovine serum albumin in TBS+0.5% Tween. Appropriate dilutions of primary antibodies were then applied overnight in a humidified chamber at room temperature (typically 1 μg/ml for VHH, and 1:200 for 6F/3D mAb). Slides were washed with TBS-Tween and incubated with secondary antibodies (rabbit anti-His Tag or biotinylated anti-mouse immunoglobulins) in TBS-Tween at room temperature for 2 hours. Slides were then incubated with either peroxidase goat anti-rabbit immunoglobulins or streptavidine-peroxidase fusions, and developed with diaminobenzidine (DAB) for 2 minutes. After washing with TBS-Tween, slides were counter-stained with hematoxylin and eosin.
# peptide Aβ 29-40 = target: T1, peptide Aβ 29-40; experiment: competition ELISA in solution (Friguet method)
# Experimental: (§1) Binding affinity of VHH antibodies was determined as described in Friguet et al., (1985). Various concentrations of Aβ peptides were incubated in solution overnight at 4° C. with a known quantity of VHH antibody until equilibrium was reached. The VHH antibody concentration used was determined by preliminary ELISA calibrations. Each mixture (100 μl) was transferred to a well of a microtiter plate previously coated with antigen and was incubated for 20 min at 4° C. The plates were washed with buffer A and free VHH antibodies were detected by adding β-galactosidase-conjugated goat anti-rabbit Igs (Biosys, Compiegne, France) and 4-methylumbelliferyl β-D galactoside (Sigma). Fluorescence was read (Fluoroskan, Labsystem, Finland) at 460 nm, after excitation at 355 nm. KD was estimated from the slope of the regression curve obtained by plotting the reciprocal of the fraction of bound antibody versus the reciprocal of the molar concentration of antigen.
# peptide Aβ 33-42 = target: T2, peptide Aβ 33-42; experiment: competition ELISA in solution (Friguet method)
# Experimental: as §1
# Aβ42 fragment 1-11 = target: T3, Aβ42 fragment 1-11; experiment: competition ELISA for KD (Friguet method) with Aβ fragment peptides
# Experimental: as §1
# Aβ42 fragment 10-20 = target: T4, Aβ42 fragment 10-20; experiment: as above
# Experimental: as §1
# Aβ42 fragment 15-25 = target: T5, Aβ42 fragment 15-25; experiment: as above
# Experimental: as §1
# Aβ42 fragment 22-35 = target: T6, Aβ42 fragment 22-35; experiment: as above
# Experimental: as §1
# T7 sequence (peptide, as listed by the source): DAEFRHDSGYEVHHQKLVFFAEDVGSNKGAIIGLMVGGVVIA
binding result [1],Kd (peptide Aβ 29-40) [nM],Kd (peptide Aβ 33-42) [nM],binding result (Aβ42 fragment 1-11),binding result (Aβ42 fragment 10-20),binding result (Aβ42 fragment 15-25),binding result (Aβ42 fragment 22-35),Binder
binds,,,,,,,"VHH 61-3 (VHH, Expressed from pET22 and purified by Ni-NTA; also called CNCM I-2933) VHH: EVQLQASGGGLVQAGGSLRLSCAASGSTFRINRMGWYRQAPGKQRELVASINSGGSTNYADSVKGRFTISRDNAKGTVNLTMNSLKPEDTAVYYCNRVTPWPYWGQGTQVTVS"
,20,20,no binding,no binding,no binding,no binding,"VHH V31-1 (VHH, Camelid VHH subcloned from pHEN1 into pET22, expressed in the E. coli periplasm and purified by Ni-NTA IMAC; It was detected with anti-c-myc or anti-His tag antibodies; also called VHH V31-1 antibody; CNCM I-2936) VHH: EVQLQASGGGSVQPGGSLRLSCAASGFIFGWSTMSWVRQAPGKGLEWVSTISGGGSATTYTDSVKGRFTISRDRAKNTLYLQMNSLKPEDTAIYYCNADVSTGFRYQRKDYWGRGTQVTVS"
